Experimental data as given in paper PMC12872393, “NCOA4 initiates ferritinophagy by avidly binding GATE16 using two short linear interaction motifs” (Life Science Alliance, 2026).

Assays:
[1] = tested on: ferritin heavy chain (FTH1); assay: Western blot assay of ferritin degradation (ferritinophagy) in HeLa cell lines; assay type: cell-based; conditions: EGFP-fused constructs stably integrated in NCOA4Δ HeLa cells; 40 μM FAC 24 h then 50 μM DFO 24 h; quantitative Western blot FTH1/tubulin, triplicate
Source text: Stably integrated NCOA4^383−522 cell lines were generated via retroviral transfection of the relevant NCOA4^383−522 construct in a CMV-enhancer–bearing pMRX plasmid (84573; Addgene) into NCOA4Δ HeLa cells (a gift from Prof. M. Poli, University of Brescia, Italy) ([Gryzik et al, 2021]). In this pMRX plasmid, EGFP was fused to the N terminus of NCOA4^383−522 and its mutants with a 13-residue GS linker. HeLa cells were transfected and selected as described previously ([Sena-Esteves & Gao, 2018]).
After 24-h, all media were aspirated and replaced with either DMEM or DMEM supplemented with 40 μM ferric ammonium citrate (FAC). After an additional 24 h, all media were aspirated and replaced with either DMEM or DMEM supplemented with 50 μM deferoxamine (DFO). After an additional 24-h incubation, cells were trypsinized (200 μl, 5 min, 37°C), pelleted via centrifugation at 100g for 1 min, resuspended in Dulbecco’s PBS (D8537; Sigma-Aldrich), and pelleted as above before undergoing flash freezing in liquid nitrogen and storage at −80°C.
Frozen cell pellets were resuspended in 100 μl 4X Laemmli buffer with Halt protease and phosphatase inhibitor (78440; Thermo Fisher Scientific) and lysed with a 29-gauge syringe. […] Ferritin levels were then measured by densitometry in FIJI ([Schindelin et al, 2012]) and normalized to tubulin intensity measured as above.

[2] = tested on: lysosomes (LAMP1); assay: Immunofluorescence colocalization of GFP-NCOA4^383−522 with lysosomes (LAMP1); assay type: cell-based; conditions: GFP-fused constructs in NCOA4Δ HeLa cells, 50 μM DFO 24 h; anti-GFP and anti-LAMP1; area of overlap per nucleus and Manders' coefficient
Description: For colocalization assays, NCOA4^383−522 cell lines were seeded on glass coverslips in a 12-well cell culture plate in DMEM as above. After 24 h, media were aspirated and replaced with DMEM supplemented with 50 μM DFO, and cells were incubated for an additional 24 h. Cells were then fixed with 4% paraformaldehyde in PBS (150 mM NaCl, 2.7 mM KCl, 10 mM Na2HPO4, 1.8 mM KH2PO4, pH 8.0) for 15 min at RT, quenched with 100 mM glycine in PBS for 10 min, and washed three times with PBS. Cells were next permeabilized with 0.5% Triton X-100 in PBS for 10 min, washed once with PBS, and blocked for 30 min in 2% BSA in PBS. Slides were next incubated in anti-GFP mouse antibody (sc-9996; Santa Cruz) diluted 1:200, anti-LAMP1 rabbit antibody (9091T; Cell Signaling) diluted 1:200, and Hoechst stain (H3570; Invitrogen) diluted 1:1,000, in 2% BSA in PBS for 1 h. […]
All image analysis was conducted in FIJI ([Schindelin et al, 2012]). […] The overlapping regions were then measured, and the area per nucleus was recorded. […] For all images, threshold values were manually chosen for the pink and green channels, and Manders’ value, which calculates the fraction of the pink signal that overlaps green signal, was recorded.

B1: NCOA4^383-522: NCOA4 fragment of residues 383–522; biotinylated AviTag-His6-NCOA4-MBP in vitro, EGFP fusion in cells (protein)
chain: SMVTEDWLVQNHQDPCKVEEVCRANEPCTSFAECVCDENCEKEALYKWLLKKEGKDKNGMPVEPKPEPEKHKDSLNMWLCPRKEVIEQTKAPKAMTPSRIADSFQVIKNSPLSEWLIRPPYKEGSPKEVPGTEDRAGKQK
modifications: biotin on the AviTag (BirA co-expressed); left off: AviTag, N-terminal, kept | His6, N-terminal, kept | MBP, C-terminal, kept
notes: NCOA4 fragment of residues 383–522; biotinylated AviTag-His6-NCOA4-MBP in vitro, EGFP fusion in cells
- ferritin degradation upon iron chelation with DFO (in words) [1]: ferritin degradation was robust
- NCOA4:lysosome colocalization (in words) [2]: significant colocalization
